# Assay results as given in patent US20250060376A1 (PLASMARKER BIOTECHNOLOGY, published 2025).
# Numbering of substitutions follows the chain as printed.
# T1: fragment DIR-II (last 27 amino acids of the sequence encoded by the retained intron of DIR) (human)
# T1 construct: also called target fragment DIR-II
# T1 peptide: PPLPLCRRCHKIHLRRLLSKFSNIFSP
# T2: DNA damage-inducible transcript 4-like (DDIT4L) intron retention spliced product (DIR) protein (human)
# T2 construct: 84 aa spliced product peptide; also called QDLIR; human DIR
# T2 chain: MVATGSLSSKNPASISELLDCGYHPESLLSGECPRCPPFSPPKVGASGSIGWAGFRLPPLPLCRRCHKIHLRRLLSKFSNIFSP
# B1: DIR antibody IR-II-10 (A2D10) (antibody, V domains shown)
# VH: EVQLQQSGPELVKPGASVKISCKTSGYTFTEYTMHWVKQSHGKSLEWIGGIYPHNGGTNYNQKFKGKATLTVDKSSSTAYMELRSLTSEDSAVYYCTEDLTFDYWGQGTTLTVSS
# VL: DIQMTQTTSSLSASLGDRVTISCSASQDISNYLNWYQQKPDGTVKLLIYYTSSLHSGVPSRFSGSGSGTDYSLTISNLEPEDIATYHCLQYSKLPFTFGSGTKLEIK
# notes: Monoclonal antibody
# B2: DIR antibody IR-II-1 (antibody, V domains shown)
# VH: QVQLKESGAELMKPGASVKISCKATGYTFSSYWIEWVKQRPGHGLEWIGEILPGSGTTNYNDKFKGKATFTADTSSNTAYMQLSNLTSEDSAVYYCARSYDGYYVFDYWGQGTTLTVSS
# VL: DIELTQSPASLAVSLGQRATISCKASQSVDYDGDSYMNWYQQKPGQPPKLLIYAASNLESGIPARFSGSGSGTDFTLNIHPVEEEDAATYYCQQSNEDPRTFGGGTKLEIK
# notes: Monoclonal antibody
# B3: DIR antibody IR-II-8 (antibody, V domains shown)
# VH: QVQLQQSGAELMKPGASVKISCKATGYTFSNYWIEWVKQRPGHGLEWIGEILPGSGSTNYNEKFKGKATFTADTSSNTAYMQLSSLTSEDSAVYYCARSGMITTRGDYFAMDYWGQGTSVTVSS
# VL: B2 VL with D34E, E97D
# notes: Monoclonal antibody
# B4: DIR antibody IR-II-6 (antibody, V domains shown)
# VH: QVQLQQSGAELMKPGASVKISCKATGYTFSRYWIEWIKQRPGHGLEWIGEILPGSYYSTNSNEKFKGKATFTADTSSNTAYMQLSSLTSEDSAVYYCARSGVITTRGDYFAMDYWGHGTSVTVSS
# VL: B2 VL with E3V, I52M
# notes: Monoclonal antibody; also called detection antibody
# B5: DIR antibody IR-II-4 (antibody, V domains shown)
# VH: QVQLQQSGAELMKPGASVKISCKATGYTFSSYWIEWVKQRPGHGLEWIGEILPGSGSTNYNEKFKGKATFTADTSSNTAYMQLNSLTSEDSAVYYCARTDDGYLSYFAMDYWGQGTSVTVSS
# VL: B2 VL with E3L, L4M, S7T
# notes: Monoclonal antibody
# B6: DIR antibody IR-II-7 (antibody, V domains shown)
# VH: B4 VH with R31N, S61Y, G67D, M82I, V102I, H117Q
# VL: B2 VL with E3V, I52M
# notes: Monoclonal antibody
# B7: DIR antibody IR-II-5 (antibody, V domains shown)
# VH: B3 VH with L11V, N31S, V37I, S55G, G56Y, S57N, Y60S, K63N, R105T, F109Y
# VL: B2 VL with D34E, E97D
# notes: Monoclonal antibody
# B8: DIR antibody IR-II-9 (antibody, V domains shown)
# VH: B4 VH
# VL: B2 VL with D34E, N96Y, E97D, T101A
# notes: Monoclonal antibody
# B9: DIR antibody IR-II-3 (antibody, V domains shown)
# VH: B4 VH with Q1E, R31N, S61Y, M82I, V102M, H117Q
# VL: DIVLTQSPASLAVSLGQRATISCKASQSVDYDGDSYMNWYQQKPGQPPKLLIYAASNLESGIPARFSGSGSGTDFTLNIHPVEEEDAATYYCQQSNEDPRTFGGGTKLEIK
# notes: Monoclonal antibody
# B10: DIR antibody IR-II-2 (antibody, V domains shown)
# VH: B3 VH with Q1E, N31S, S57T, A72V, M101V, T104A, F109Y
# VL: B2 VL with E3V, L4M, E59D
# notes: Monoclonal antibody
# Target: T1, fragment DIR-II (last 27 amino acids of …)
# Experiment: ELISA, DIR-II coated; mAb (1 mg/mL) diluted 1:2k
# Experimental: (§1) The binding activity of the above antibodies IR-II-1 to IR-II-10 to fragments DIR-II was detected. The method specifically comprises:
# (§2) The target fragment DIR-II was coated on a 96-well plate using a coating buffer and blocked with a blocking buffer. […] Then, a secondary antibody with horseradish peroxidase (1:5k) was added and incubated at 37° C. After washing three times, an appropriate volume of TMB substrate solution was added, and the resulting mixture was incubated at 37° C. for a certain period of time, and then placed under a microplate reader to record the absorbance value of the sample at a wavelength of 450 nm.
row,Binder,absorbance at 450 nm
1,B1,2.01 absorbance (450 nm)
2,B2,3.14 absorbance (450 nm)
3,B3,3.2 absorbance (450 nm)
4,B4,3.09 absorbance (450 nm)
5,B5,3.3 absorbance (450 nm)
6,B6,3.09 absorbance (450 nm)
7,B7,3.24 absorbance (450 nm)
8,B8,3.11 absorbance (450 nm)
9,B9,3.05 absorbance (450 nm)
10,B10,3.23 absorbance (450 nm)

# Target: T1, fragment DIR-II (last 27 amino acids of …)
# Experiment: ELISA, DIR-II coated; mAb (1 mg/mL) diluted 1:6k
# Experimental: as §1, §2
row,Binder,absorbance at 450 nm
1,B1,0.472 absorbance (450 nm)
2,B2,2.98 absorbance (450 nm)
3,B3,0.87 absorbance (450 nm)
4,B4,3.18 absorbance (450 nm)
5,B5,1.77 absorbance (450 nm)
6,B6,2.98 absorbance (450 nm)
7,B7,1.31 absorbance (450 nm)
8,B8,3.27 absorbance (450 nm)
9,B9,3.05 absorbance (450 nm)
10,B10,1.62 absorbance (450 nm)

# Target: T1, fragment DIR-II (last 27 amino acids of …)
# Experiment: ELISA, DIR-II coated; mAb (1 mg/mL) diluted 1:18k
# Experimental: as §1, §2
row,Binder,absorbance at 450 nm
1,B1,0.142 absorbance (450 nm)
2,B2,0.818 absorbance (450 nm)
3,B3,0.257 absorbance (450 nm)
4,B4,2.01 absorbance (450 nm)
5,B5,0.555 absorbance (450 nm)
6,B6,1.16 absorbance (450 nm)
7,B7,0.387 absorbance (450 nm)
8,B8,1.87 absorbance (450 nm)
9,B9,1.27 absorbance (450 nm)
10,B10,0.823 absorbance (450 nm)

# Target: T1, fragment DIR-II (last 27 amino acids of …)
# Experiment: ELISA, DIR-II coated; mAb (1 mg/mL) diluted 1:54k
# Experimental: as §1, §2
row,Binder,absorbance at 450 nm
1,B1,0.0783 absorbance (450 nm)
2,B2,0.264 absorbance (450 nm)
3,B3,0.138 absorbance (450 nm)
4,B4,0.78 absorbance (450 nm)
5,B5,0.186 absorbance (450 nm)
6,B6,0.35 absorbance (450 nm)
7,B7,0.159 absorbance (450 nm)
8,B8,0.622 absorbance (450 nm)
9,B9,0.4 absorbance (450 nm)
10,B10,0.193 absorbance (450 nm)

# Target: T1, fragment DIR-II (last 27 amino acids of …)
# Experiment: ELISA, DIR-II coated; mAb (1 mg/mL) diluted 1:162k
# Experimental: as §1, §2
row,Binder,absorbance at 450 nm
1,B1,0.0517 absorbance (450 nm)
2,B2,0.109 absorbance (450 nm)
3,B3,0.0911 absorbance (450 nm)
4,B4,0.414 absorbance (450 nm)
5,B5,0.136 absorbance (450 nm)
6,B6,0.164 absorbance (450 nm)
7,B7,0.19 absorbance (450 nm)
8,B8,0.318 absorbance (450 nm)
9,B9,0.366 absorbance (450 nm)
10,B10,0.14 absorbance (450 nm)

# Target: T1, fragment DIR-II (last 27 amino acids of …)
# Experiment: ELISA, DIR-II coated; mAb (1 mg/mL) diluted 1:486k
# Experimental: as §1, §2
row,Binder,absorbance at 450 nm
1,B1,0.0517 absorbance (450 nm)
2,B2,0.0656 absorbance (450 nm)
3,B3,0.0864 absorbance (450 nm)
4,B4,0.306 absorbance (450 nm)
5,B5,0.0955 absorbance (450 nm)
6,B6,0.121 absorbance (450 nm)
7,B7,0.285 absorbance (450 nm)
8,B8,0.207 absorbance (450 nm)
9,B9,0.173 absorbance (450 nm)
10,B10,0.112 absorbance (450 nm)

# Target: T1, fragment DIR-II (last 27 amino acids of …)
# Experiment: ELISA, DIR-II coated; mAb (1 mg/mL) diluted 1:1458k
# Experimental: as §1, §2
row,Binder,absorbance at 450 nm
1,B1,0.0501 absorbance (450 nm)
2,B2,0.0653 absorbance (450 nm)
3,B3,0.0906 absorbance (450 nm)
4,B4,0.2 absorbance (450 nm)
5,B5,0.0751 absorbance (450 nm)
6,B6,0.103 absorbance (450 nm)
7,B7,0.0911 absorbance (450 nm)
8,B8,0.169 absorbance (450 nm)
9,B9,0.166 absorbance (450 nm)
10,B10,0.0839 absorbance (450 nm)

# Target: T1, fragment DIR-II (last 27 amino acids of …)
# Experiment: ELISA, DIR-II coated; mAb (1 mg/mL) diluted 1:4374k
# Experimental: as §1, §2
row,Binder,absorbance at 450 nm
1,B1,0.0427 absorbance (450 nm)
2,B2,0.0934 absorbance (450 nm)
3,B3,0.0887 absorbance (450 nm)
4,B4,0.18 absorbance (450 nm)
5,B5,0.0775 absorbance (450 nm)
6,B6,0.0867 absorbance (450 nm)
7,B7,0.0868 absorbance (450 nm)
8,B8,0.193 absorbance (450 nm)
9,B9,0.153 absorbance (450 nm)
10,B10,0.115 absorbance (450 nm)

# Target: T2, DNA damage-inducible transcript 4-like …
# Experiment: sandwich ELISA, capture antibody GL Biochem AB009458, detection antibody IR-II-6 (method of paragraph 444)
# Experimental: Methods for collecting venous blood and obtaining plasma: The blood was collected from the vein in cubital fossa of a patient into an EDTA vacuum tube by using the vacuum blood collection technique, and the tube was immediately inverted gently 8 times to fully mix the blood and an anticoagulant. Then, the tube was transported to the laboratory on ice, centrifuged for 10 min at 1500 g at 4° C., and the supernatant was aspirated, aliquoted, and stored at −80° C.
# ELISA method for plasma: The plasma sample was diluted at 1:1 with 1× diluent (OBT1998G, purchased from Bio-Rad); then, 100 μl of a blocking solution was added using a pipette for blockage for 1 h at 37° C.; then, 100 μl of a proportionally diluted standard and diluted plasma were added into plate wells coated with capture antibodies (GL Biochem, AB009458) by using the pipette, the tip of which was changed for each sampling; the resulting mixture was incubated for 1.5 h at 37° C.; the liquid in each well was removed, and the well was washed 3 times with 100 μl 1× washing solution (BUF031C, purchased from Bio-Rad); 100 μl of detection antibody (i. e., the DIR antibody IR-II-6, of which a VH amino acid sequence was as set forth in SEQ ID NO. 58, and of which a VL amino acid sequence was as set forth in SEQ ID NO. […]
row,Binder,binding result
1,B4,binds
